Target: the molecule itself
Assay: SEC; analytical SEC of TcoPYK alone, ENRICH 650 10/30 column, BioRAD gel filtration standard

B1: recombinant T. congolense pyruvate kinase (enzyme, UniProt G0UYF4 1-499, looked up)
chain: MSQLQHNIGLSIFEPVAKHRANRIICTIGPSTQSVEALKGLMKSGMSVARMNFSHGSYEYHQTTINNVRAAAAELGLHIGIALDTKGPEIRTGLFKDGEATYAPGDTVLVTTDPAFEKIGTKEKFYVDYPQLPNVVRPGGLIYVDDGVLTLRVLSKEDDCTLKCHVNNHHRLTDRKGINLPGCEVDLPAVSEKDRKDLQFGVEQGVDMIFASFIRTADQVREVRAALGEKGKDTLIISKIENHQGVQNIDAIIEASDGIMVARGDLGVEIPAEKVVVAQMCIISKCNVAGKPVICATQMLESMTTNPRPTRAEVTDVANAVFNGADCVMLSGETAKGKYPNEVVQYMVRICIEAQSATHDSVMFNSIKNLQKIPMSPEEAVCSSAVSSAFEVQAKAILVLSNTGRSARLISKYRPNCPIICATTRLLTCRQLNVTRSVESVYYDVDAHGEDNDREKRVQLGVDWAKTKGYVSAGDVMVIVHADHSVKGYPNQTRLVRVR
notes: also called TcoPYK; source: E. coli BL21(DE3), purified (details in the Supplementary Information)
- stoichiometry N: 4

— PMC5998082, “Development of a Nanobody-based lateral flow assay to detect active Trypanosoma congolense infections” (Scientific Reports, 2018)
